From article PMC5561218

What was measured:
[1] = molecular target: fibrinogen related-protein 30 (FBN30), insect cell-expressed recombinant (Anopheles gambiae); assay: non-reducing and reducing SDS-PAGE with western blot; 12% SDS-PAGE without or with beta-ME of culture medium of transfected Hi5 cells; FBN30 detected with anti-FBN30 antibody; covalent (disulfide) dimer
[2] = molecular target: fibrinogen related-protein 30 (FBN30), insect cell-expressed recombinant (Anopheles gambiae); assay: SEC; concentrated Hi5 medium on a Superdex 200 10/300 GL column, PBS pH 7.4, 0.4 mL/min, calibrated with protein standards; FBN30 in the fractions quantified by ELISA with anti-FBN30; octamer of four disulfide-linked homodimers

stoichiometry N [1]: 2
stoichiometry N [2]: 8
Substance: fibrinogen related-protein 30 (FBN30), insect cell-expressed recombinant (natural protein)
